# Test results published in publication PMC4892619.
# Legend:
# [1] = target: T1, CsrA-His6 (Campylobacter jejuni 81-176) (UniProt Q0P9F1); experiment: EMSA; details: 10 mM Tris-HCl pH 7.5, 10 mM MgCl2, 100 mM KCl, 32.5 ng yeast RNA, 20 mM DTT, 7.5% glycerol, 4 U RNase inhibitor, 10 ul, 30 min at 37 C; 15% native PAGE
# T1 sequence: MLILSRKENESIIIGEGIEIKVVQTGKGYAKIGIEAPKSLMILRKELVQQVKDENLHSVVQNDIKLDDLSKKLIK
# [2] = system: CsrA-His6 (Campylobacter jejuni 81-176); experiment: EMSA; details: 10 mM Tris-HCl pH 7.5, 10 mM MgCl2, 100 mM KCl, 32.5 ng yeast RNA, 20 mM DTT, 7.5% glycerol, 4 U RNase inhibitor, 10 ul, 30 min at 37 C; 15% native PAGE
Substance,Kd [1] [nM],Kd [2] [nM]
GGGUAUAAAUUUUUAAAAAAAAGUAACGAUAUAGCAUUUAACAAGCUCAUGGAUGAGUUUGAAAUUAUUUAAAAGGAUUUAAA [flaA mRNA 5' end transcript],6.53,
flaA mRNA 5' end transcript,,6.53
